Measured values as given in patent publication US20260234222A1.

Target: SARS-CoV-2 Delta Spike antigen (SARS-CoV-2 Delta)
Test: ELISA, Spike antigen coated on plate

Anti-S1 antibody DZIF-10c
EC50: 6.9 nM

Anti-S1 antibody ImdevimAb
EC50: 0.01 nM
